{"source": "paper PMC7683652", "about": "(Nature Communications, 2020)", "proteins": {"B1": {"name": "TDP-43 N-terminal region (aa 1-100) (domain or fragment, UniProt Q13148 1-100, looked up)", "chain": "MSEYIRVTEDENDEPIEIPSEDDGTVLLSTVTAQFPGACGLRYRNPVSQCMRGVRLVEGILHAPDAGWGNLVYVVNYPKDNKRKMDETDASSAVKVKRAV", "notes": "the methods say aa; 1-101; calculated 12.5 kDa; C-terminal limit is printed as 100 (results, legend) and as 101 (methods); also called N-terminal TDP-43; source: E. coli M15 (pQE30), purified (Ni-NTA)"}}, "target": "the molecule itself", "test": "SEC; size exclusion chromatography of the truncated TDP-43 proteins against molecular weight standards (Supplementary Fig. 3a); conditions not shown"}
{"protein": "B1", "values": [{"measurement": "stoichiometry N", "value": 2}]}
